In assay [1] the target is T1, Biotinylated human CD3E&D (human, UniProt P07766 23-126; P04234 22-105, biotin label).
T1 construct: also called CDD-H82W6
In words: BLI (Octet), biotinylated CD3 on SA sensor, 1:1 global fit.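 Further: antibodies applied as analyte in 2-fold serial dilutions, with a 180 s association phase followed by a 300 s dissociation phase.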 In general terms: Biolayer interferometry detects binding as a change in optical thickness at a sensor tip.
Protocol: (§1) The binding kinetics between proteins and antibodies was analyzed by the Biolayer Interferometry (BLI) technique using an Octet Red 96e (Fortebio) system. Human CD3E (Acro, CDE-H5223), cynomolgus CD3E (Acro, CDE-C5226) and murine CD3E (Acro, CDE-M5256) were mixed with biotin (Thermo Scientific, A39257) in a molar ratio of 1:3. The mixture was incubated at 4° C. overnight, and then excess biotin was removed to obtain biotinylated CD3E. The rotation speed was set at 1000 rpm for the system. […] After being equilibrated in the buffer for 120 s, the SA sensor with captured CD3 was allowed to bind to 2-fold serially diluted antibodies. […] Finally, the SA sensor was immersed in a 10 mM glycine-hydrochloric acid solution at pH 1.5 for regeneration to elute the antibodies bound to the sensor. […] For the interactions of fast binding and fast dissociation, the “steady state” method was selected to fit the data to obtain KD(M) values.

Assay [2] addresses T2, Human CD3E (Acro, CDE-H5223) (human, UniProt P07766 23-126, biotinylated (mixed with biotin 1:3)).
T2 construct: also called Human CD3Ec
Described as above.
Protocol: as §1

Assay [3] has as its target T3, Biotinylated murine CD3E&D (murine, UniProt P22646 22-108; P04235 22-105, biotin label).
T3 construct: also called CDD-M82W5
In words: BLI (Octet), biotinylated CD3 on SA sensor.
Protocol: as §1

Assay [4] deals with T4, human CD3 on Jurkat cells (human, UniProt P07766 23-207).
T4 construct: whole, on cells; on cells it stands in the whole CD3/TCR complex; also called CD3-expressing cells
In words: FACS on Jurkat cells.
Protocol: (§2) Antibodies were assayed for binding affinity by FACS. Test cells include HEK293/hCLDN18.2, HEK293/hCLDN18.1, NUGC4_D8 and Jurkat cells. […] The cell density was adjusted to 10⁶ cells/mL, and 50 μL of the cell suspension was added to each well of a 96-well plate. Antibodies were diluted to different concentrations with FACS buffer, and 50 μL of the antibody dilution was added to each well of the 96-well plate. After 2 h of incubation at 4° C., the plate was washed twice with FACS buffer. […] After 1 h of incubation at 4° C., the plate was washed twice with FACS buffer. The cells were resuspended in fixative solution, and then the fluorescence of the cells was monitored using an FACS instrument (ACEA NovoCyte).

Assay [5] concerns the target T5, human CLDN18.2 (human).
T5 construct: the HEK293 line was made with a GenScript plasmid; also called hCLDN18.2
In words: FACS on HEK293/hCLDN18.2 cells.

For assay [6], the target named is T5, human CLDN18.2. In words: FACS on NUGC4_D8 cells.
Protocol: as §2
In assay [7] the target is CLDN18.2 of SNU620 cells (methionine to leucine at amino acid 149) (human, UniProt P56856-2 1-261). In words: cell-based or functional assay.
Assay [8] concerns the target T5, human CLDN18.2. In words: cell-based or functional assay.
Assay [9] deals with T5, human CLDN18.2. In words: competition FACS on HEK293/hCLDN18.2 cells; competitor 200 nM biotinylated PR004549.
Protocol: (§3) This example is to study the binding of anti-human CLDN18.2 bispecific antibodies to the epitope region of a human CLDN18.2 antigen. Competitive binding experiments were performed at the cellular level using human CLDN18.2-overexpressing HEK293/hCLDN18.2 cells. […] The mixture was well mixed and incubated at 4° C. for 30 min. 25 μL of the corresponding serially diluted non-biotinylated anti-human CLDN18.2 antibody was added. The mixture was well mixed and incubated at 4° C. for 1 h. The cells in each well were washed twice with 200 μL of pre-cooled FACS buffer (2% BSA in DPBS) and centrifuged at 500 g at 4° C. for 5 min, and then the supernatant was discarded. A fluorescent secondary antibody (Jackson ImmunoResearch, 016-540-084, 1:500) was added. The mixture was incubated at 4° C. in the absence of light for 1 h. The cells in each well were washed twice with 200 μL of pre-cooled FACS buffer (2% BSA in DPBS) and centrifuged at 500 g at 4° C. for 5 min, and then the supernatant was discarded. Finally, the cells in each well were resuspended in 200 μL of pre-cooled FACS buffer, and the fluorescence signal values were read using a ACEA_NovoCyte.
Assay [10] deals with T6, Cynomolgus CD3E (Acro, CDE-C5226) (cynomolgus, UniProt Q95LI5 22-117, biotinylated (mixed with biotin 1:3)).
T6 sequence (looked up): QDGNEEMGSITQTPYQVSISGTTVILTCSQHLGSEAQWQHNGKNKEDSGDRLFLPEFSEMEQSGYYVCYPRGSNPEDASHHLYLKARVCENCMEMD
In words: BLI (Octet), biotinylated CD3 on SA sensor, 1:1 global fit.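 Further: antibodies applied as analyte in 2-fold serial dilutions, with a 180 s association phase followed by a 300 s dissociation phase.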
Protocol: as §1

The next assay addresses Human CD16a(F) (human, UniProt P08637 17-208). In words: BLI (Octet), antibody on FAB2G sensor.
Another assay addresses T7, Human CD32a(H) (human, UniProt P12318 36-218, limits assumed).
T7 sequence (looked up): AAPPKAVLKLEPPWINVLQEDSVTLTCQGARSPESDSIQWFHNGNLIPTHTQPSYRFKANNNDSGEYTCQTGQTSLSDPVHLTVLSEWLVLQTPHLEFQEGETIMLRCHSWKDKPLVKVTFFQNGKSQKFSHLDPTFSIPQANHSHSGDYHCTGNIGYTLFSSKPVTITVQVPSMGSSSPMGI
In words: BLI (Octet), antibody on FAB2G sensor.

The next assay has as its target T8, Human CD64 (human, UniProt P12314 16-288, limits assumed).
T8 construct: bought recombinant protein
In words: BLI (Octet), antibody on FAB2G sensor.

The next assay addresses T9, Human CD32b (human, UniProt P31994 46-217, limits assumed).
T9 sequence (looked up): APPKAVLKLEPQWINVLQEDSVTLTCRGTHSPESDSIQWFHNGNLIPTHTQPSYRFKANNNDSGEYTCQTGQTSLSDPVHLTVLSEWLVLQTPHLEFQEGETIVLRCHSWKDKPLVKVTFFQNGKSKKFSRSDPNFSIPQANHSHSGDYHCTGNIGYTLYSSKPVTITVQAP
In words: BLI (Octet), antibody on FAB2G sensor.

Another assay deals with Human CD16a(V) (human, UniProt P08637 17-208). In words: BLI (Octet), antibody on FAB2G sensor.
Another assay has as its target Human FcRn (human, UniProt P55899 24-297; P61769 21-119). In words: BLI (Octet), antibody on FAB2G sensor, pH 6.0, 1:1 global fit; pH 6.0; 400-25 nM.
For assay [11], the target named is T5, human CLDN18.2. In words: competition FACS on HEK293/hCLDN18.2 cells; competitor 10 nM biotinylated PR000400.
Protocol: as §3
Assay [12] deals with T4, human CD3 on Jurkat cells. In words: FACS on Jurkat cells. This is another data set of the same source.
Protocol: as §2

T2 sequence (P07766 23-126 limits assumed): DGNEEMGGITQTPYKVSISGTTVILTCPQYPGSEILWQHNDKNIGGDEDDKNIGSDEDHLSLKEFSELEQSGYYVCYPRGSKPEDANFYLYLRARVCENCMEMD
T1 sequence (P07766 23-126, chain 1 of 2): as the sequence (P07766 23-126 limits assumed) above
T1 sequence (P04234 22-105, chain 2 of 2): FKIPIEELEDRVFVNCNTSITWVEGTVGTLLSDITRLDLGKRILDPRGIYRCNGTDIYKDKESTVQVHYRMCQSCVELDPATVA
Chain of Human FcRn (P55899 24-297 limits assumed, chain 1 of 2): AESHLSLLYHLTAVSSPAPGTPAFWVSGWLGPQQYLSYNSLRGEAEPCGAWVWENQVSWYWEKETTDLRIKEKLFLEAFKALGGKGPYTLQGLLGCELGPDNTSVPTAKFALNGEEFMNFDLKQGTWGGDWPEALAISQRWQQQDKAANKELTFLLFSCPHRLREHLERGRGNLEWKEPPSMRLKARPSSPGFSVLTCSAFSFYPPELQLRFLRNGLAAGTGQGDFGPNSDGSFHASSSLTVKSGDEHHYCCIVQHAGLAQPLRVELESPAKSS
Chain of Human FcRn (P61769 21-119 limits assumed, chain 2 of 2): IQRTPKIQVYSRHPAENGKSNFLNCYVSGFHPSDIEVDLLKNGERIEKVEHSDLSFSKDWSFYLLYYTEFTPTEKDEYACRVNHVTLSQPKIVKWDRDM
T4 sequence (P07766 23-207): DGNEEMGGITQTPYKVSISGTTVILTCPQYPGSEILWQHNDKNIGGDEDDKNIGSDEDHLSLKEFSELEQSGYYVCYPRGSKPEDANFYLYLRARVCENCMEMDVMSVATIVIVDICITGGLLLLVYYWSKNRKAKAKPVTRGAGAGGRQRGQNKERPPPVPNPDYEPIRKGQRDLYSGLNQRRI
Chain of CLDN18.2 of SNU620 cells (methionine to leucine at amino acid 149) (P56856 other isoform, or with tags, fused parts or gaps limits assumed): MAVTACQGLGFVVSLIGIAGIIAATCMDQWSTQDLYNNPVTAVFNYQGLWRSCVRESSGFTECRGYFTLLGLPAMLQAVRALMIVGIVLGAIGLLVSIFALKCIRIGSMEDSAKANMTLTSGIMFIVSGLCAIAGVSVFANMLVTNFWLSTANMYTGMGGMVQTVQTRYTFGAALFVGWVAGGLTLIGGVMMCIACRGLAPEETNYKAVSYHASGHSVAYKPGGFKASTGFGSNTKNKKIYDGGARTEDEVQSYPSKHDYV
T3 sequence (P22646 22-108, chain 1 of 2): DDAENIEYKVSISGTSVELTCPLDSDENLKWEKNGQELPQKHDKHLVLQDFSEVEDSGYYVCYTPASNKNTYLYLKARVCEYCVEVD
T3 sequence (P04235 22-105, chain 2 of 2): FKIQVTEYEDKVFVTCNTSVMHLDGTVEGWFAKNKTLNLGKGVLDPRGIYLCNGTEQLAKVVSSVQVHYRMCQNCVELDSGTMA
Chain of Human CD16a(F) (P08637 17-208 limits assumed): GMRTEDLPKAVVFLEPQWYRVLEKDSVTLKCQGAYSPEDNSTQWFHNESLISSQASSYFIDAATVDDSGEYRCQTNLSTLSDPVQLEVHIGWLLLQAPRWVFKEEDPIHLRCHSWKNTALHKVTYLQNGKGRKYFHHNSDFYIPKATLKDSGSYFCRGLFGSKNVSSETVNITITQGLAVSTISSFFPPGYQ
T8 sequence (P12314 16-288 limits assumed): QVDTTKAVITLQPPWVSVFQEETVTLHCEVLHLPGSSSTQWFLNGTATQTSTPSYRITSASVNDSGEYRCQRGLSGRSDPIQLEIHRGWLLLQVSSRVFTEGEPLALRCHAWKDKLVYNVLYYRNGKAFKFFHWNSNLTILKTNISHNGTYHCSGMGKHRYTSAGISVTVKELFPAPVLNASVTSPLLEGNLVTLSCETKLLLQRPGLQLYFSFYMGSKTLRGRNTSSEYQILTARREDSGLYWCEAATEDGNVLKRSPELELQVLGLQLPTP
Chain of Human CD16a(V) (P08637 17-208 F176V limits assumed): as the sequence (P08637 17-208 limits assumed) above, with F160V counted along it
Protocol for Human CD16a(F): (§4) The binding kinetics between proteins and antibodies was analyzed by the Biolayer Interferometry (BLI) technique using an Octet Red 96e (Fortebio) system. The rotation speed was set at 1000 rpm for the system. […] After equilibrated in the buffer for 120 s, the FAB2G sensor was allowed to bind to 2-fold serially diluted human Fc receptor protein. Finally, the FAB2G sensor was immersed in a 10 mM glycine-hydrochloric acid solution at pH 1.5 for regeneration to elute the proteins bound to the sensor. The affinity assays of antibodies for FcRn were performed under the conditions of both pH 6.0 buffer and pH 7.4 buffer. […] For the interactions of fast binding and fast dissociation, the “steady state” method was selected to fit the data to obtain KD(M) values.
Protocol for Human CD16a(V): as §4
Protocol for Human CD32a(H): as §4
Protocol for Human CD32b: as §4
Protocol for Human CD64: as §4
Protocol for Human FcRn: as §4

B1: PR004931 (bispecific antibody)
chain 1: QVQLVQSGAEVKKPGASVKVSCKASGYTFTEFGMNWVRQAPGQGLEWMGWINTKTGEATYVEEFKGRVTFTTDTSTSTAYMELRSLRSDDTAVYYCARWDFAYYVEAMDYWGQGTTVTVSSASTKGPSVFPLAPSSKSTSGGTAALGCLVKDYFPEPVTVSWNSGALTSGVHTFPAVLQSSGLYSLSSVVTVPSSSLGTQTYICNVNHKPSNTKVDKKVEPKSCDGGGGSGGGGSEVQLLESGGGLVQPGGSLRLSCAASGFTFSTYAMNWVRQAPGKGLEWVSRIRSKYNNYATYYADSVKGRFTISRDDSKNTLYLQMNSLRAEDTAVYYCVRHGNFGNSYVSWFAYWGQGTLVTVSSASVAAPSVFIFPPSDEQLKSGTASVVCLLNNFYPREAKVQWKVDNALQSGNSQESVTEQDSKDSTYSLSSTLTLSKADYEKHKVYACEVTHQGLSSPVTKSFNRGECDKTHTCPPCPAPEAAGGPSVFLFPPKPKDTLMISRTPEVTCVVVDVSHEDPEVKFNWYVDGVEVHNAKTKPREEQYNSTYRVVSVLTVLHQDWLNGKEYKCKVSNKALGAPIEKTISKAKGQPREPQVYTLPPCREEMTKNQVSLWCLVKGFYPSDIAVEWESNGQPENNYKTTPPVLDSDGSFFLYSKLTVDKSRWQQGNVFSCSVMHEALHNHYTQKSLSLSPGK
chain 2: QAVVTQEPSLTVSPGGTVTLTCGSSTGAVTTSNYANWVQEKPGQAFRGLIGGTNKRAPGTPARFSGSLLGGKAALTLSGAQPEDEAEYYCALWYSNLWVFGGGTKLTVLSSASTKGPSVFPLAPSSKSTSGGTAALGCLVKDYFPEPVTVSWNSGALTSGVHTFPAVLQSSGLYSLSSVVTVPSSSLGTQTYICNVNHKESNTKVDKKVEPKSC
chain 3: QVQLVQSGAEVKKPGASVKVSCKASGYTFTEFGMNWVRQAPGQGLEWMGWINTKTGEATYVEEFKGRVTFTTDTSTSTAYMELRSLRSDDTAVYYCARWDFAYYVEAMDYWGQGTTVTVSSASTKGPSVFPLAPSSKSTSGGTAALGCLVKDYFPEPVTVSWNSGALTSGVHTFPAVLQSSGLYSLSSVVTVPSSSLGTQTYICNVNHKPSNTKVDKKVEPKSCDKTHTCPPCPAPEAAGGPSVFLFPPKPKDTLMISRTPEVTCVVVDVSHEDPEVKFNWYVDGVEVHNAKTKPREEQYNSTYRVVSVLTVLHQDWLNGKEYKCKVSNKALGAPIEKTISKAKGQPREPQVCTLPPSREEMTKNQVSLSCAVKGFYPSDIAVEWESNGQPENNYKTTPPVLDSDGSFFLVSKLTVDKSRWQQGNVFSCSVMHEALHNHYTQKSLSLSPGK
chain 4: DIQMTQSPSSLSASVGDRVTITCKASAAVGTYVAWYQQKPGKAPKLLIYSASYRKRGVPSRFSGSGSGTDFTLTISSLQPEDFATYYCHQYYTYPLFTFGQGTKLEIKRTVAAPSVFIFPPSDEQLKSGTASVVCLLNNEYPREAKVQWKVDNALQSGNSQESVTEQDSKDSTYSLSSTLTLSKADYEKHKVYACEVTHQGLSSPVTKSFNRGEC
notes: also called anti-CEA×CD3 bispecific antibody (WO2017055389A1, Roche)
Regarding B1, in assay [1], the Kd (commonly the equilibrium constant for the complex coming apart) was 33.7 nM; the off-rate (koff) (in general, the first-order rate constant of dissociation) is 0.00137 s⁻¹; the kon (in general, a measure of how fast the partners come together) turned out to be 40700 M⁻¹ s⁻¹. In assay [2], the dissociation constant Kd came out at 30.8 nM, the koff was 0.00225 s⁻¹ and the kon stood at 73100 M⁻¹ s⁻¹. The binding result in assay [3] is on record as “no binding (tested: 120-7.5 nM)”.

B2: PR005401 (bispecific antibody, human IgG1, lambda, L234A L235A)
chain: EVQLVESGGGLVQPGGSLRLSCAASGFTFSSYWMHWVRQVPGKGLVWVSRIDSRGSRTIYADSVKGRFTISRDNAKNTLYLQMNSLRAEDTAVYYCARGEDHDILTGYPIRGQGTTVTVSSGGGGSGGGGSGGGGSEVQLVESGGGLVQPGGSLRLSCAASGFTFSSYWMHWVRQVPGKGLVWVSRIDSRGSRTIYADSVKGRFTISRDNAKNTLYLQMNSLRAEDTAVYYCARGEDHDILTGYPIRGQGTTVTVSSASEPKSSDKTHTCPPCPAPEAAGGPSVFLFPPKPKDTLMISRTPEVTCVVVDVSHEDPEVKFNWYVDGVEVHNAKTKPREEQYNSTYRVVSVLTVLHQDWLNGKEYKCKVSNKALPAPIEKTISKAKGQPREPQVCTLPPSREEMTKNQVSLSCAVKGFYPSDIAVEWESNGQPENNYKTTPPVLDSDGSFFLVSKLTVDKSRWQQGNVFSCSVMHEALHNHYTQKSLSLSPGK
heavy: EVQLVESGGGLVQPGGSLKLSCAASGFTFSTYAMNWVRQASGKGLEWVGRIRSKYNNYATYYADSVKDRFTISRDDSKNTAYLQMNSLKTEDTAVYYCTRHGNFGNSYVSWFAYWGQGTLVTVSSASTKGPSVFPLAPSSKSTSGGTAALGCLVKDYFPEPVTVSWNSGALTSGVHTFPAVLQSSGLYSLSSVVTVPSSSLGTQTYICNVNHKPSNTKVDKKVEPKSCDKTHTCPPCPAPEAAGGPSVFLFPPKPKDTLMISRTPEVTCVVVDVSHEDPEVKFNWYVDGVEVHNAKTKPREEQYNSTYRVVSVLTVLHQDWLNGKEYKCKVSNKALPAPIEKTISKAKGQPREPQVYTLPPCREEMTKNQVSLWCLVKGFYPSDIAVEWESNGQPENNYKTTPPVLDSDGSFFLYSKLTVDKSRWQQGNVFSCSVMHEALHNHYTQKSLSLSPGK
light: QAVVTQEPSLTVSPGGTVTLTCRSSTGAVTTSNYANWVQQKPGQAPRGLIGGTNKRAPWTPARFSGSLLGDKAALTLLGAQPEDEAEYFCALWYSNLWVFGGGTKLTVLGQPKAAPSVTLFPPSSEELQANKATLVCLISDFYPGAVTVAWKADSSPVKAGVETTTPSKQSNNKYAASSYLSLTPEQWKSHRSYSCQVTHEGSTVEKTVAPTECS
notes: structure 1; CD3 Fab from PR003886, CLDN18.2 VH from PR007244; LALA
With B2, the binding result in [4] was “binds”. For the same molecule, the results for the EC50 with human CLDN18.2 [5] and in the assay with human CLDN18.2 [6] were 17.5 nM and 13.1 nM, respectively. Further, the “TDCC, Titer EC50 (pM), SNU620” value in assay [7] stood at 25.8 pM. The “TDCC, Titer EC50 (pM), NUGC4_D8” value in the assay with human CLDN18.2 [8] was found to be 6.4 pM.

B3: PR006293 (bispecific antibody, human IgG1, lambda)
chain: EVQLVESGGGLVQPGGSLRLSCAASGFTFSSYWMHWVRQVPGKGLVWVSRISSDASRTIYADSVKGRFTISRDNAKNTLYLQMNSLRAEDTAVYYCARGEDHDILTGYPIRGQGTTVTVSSGGGGSGGGGSGGGGSEVQLVESGGGLVQPGGSLRLSCAASGFTFSSYWMHWVRQVPGKGLVWVSRISSDASRTIYADSVKGRFTISRDNAKNTLYLQMNSLRAEDTAVYYCARGEDHDILTGYPIRGQGTTVTVSSASEPKSSDKTHTCPPCPAPEAAGAPSVFLFPPKPKDTLMISRTPEVTCVVVDVSHEDPEVKFNWYVDGVEVHNAKTKPREEQYNSTYRVVSVLTVLHQDWLNGKEYKCKVSNKALPAPIEKTISKAKGQPREPQVCTLPPSREEMTKNQVSLSCAVKGFYPSDIAVEWESNGQPENNYKTTPPVLDSDGSFFLVSKLTVDKSRWQQGNVFSCSVMHEALHNHYTQKSLSLSPGK
heavy: EVQLLESGGGLVQPGGSLRLSCAASGFTFSTYAMNWVRQAPGKGLEWVSRIRSKYNNYATYYADSVKDRFTISRDDSKSTLYLQMNSLRAEDTAVYYCVRHGNFGNSYVSWFAYWGQGTLVTVSSASTKGPSVFPLAPSSKSTSGGTAALGCLVKDYFPEPVTVSWNSGALTSGVHTFPAVLQSSGLYSLSSVVTVPSSSLGTQTYICNVNHKPSNTKVDKKVEPKSCDKTHTCPPCPAPEAAGAPSVFLFPPKPKDTLMISRTPEVTCVVVDVSHEDPEVKFNWYVDGVEVHNAKTKPREEQYNSTYRVVSVLTVLHQDWLNGKEYKCKVSNKALPAPIEKTISKAKGQPREPQVYTLPPCREEMTKNQVSLWCLVKGFYPSDIAVEWESNGQPENNYKTTPPVLDSDGSFFLYSKLTVDKSRWQQGNVFSCSVMHEALHNHYTQKSLSLSPGK
light: QAVVTQEPSLTVSPGGTVTLTCRSSTGAVTTSNYANWVQQKPGQAPRGLIGGTNKRAPWTPARFSGSLLGDKAALTLLGAQPEDEAEYFCALWYSNLWVFGGGTKLTVLGQPKAAPSVTLFPPSSEELQANKATLVCLISDFYPGAVTVAWKADSSPVKAGVETTTPSKQSNNKYAASSYLSLTPEQWKSHRSYSCQVTHEGSTVEKTVAPTECS
notes: structure 1; CD3 Fab from PR001848, CLDN18.2 VH from PR007245; AAA
Regarding B3, the half-maximal inhibitory concentration (IC50) (in general, the concentration needed to halve the response being measured) is 100 nM with human CLDN18.2 [9] and 132 nM in the assay with human CLDN18.2 [11]. For the same molecule, the “Maximum inhibition rate (%)” value in the assay with human CLDN18.2 [9] was 48%; with human CLDN18.2 [11] it was 97.8%. The figures for the Kd (in assay [10]; in assay [2]; with Human FcRn) were 32.4 nM, 31.7 nM and 217 nM, respectively. In addition, the off-rate (koff) in assay [10] turned out to be 0.00197 s⁻¹; in assay [2] it was 0.00216 s⁻¹; with Human FcRn, 0.0632 s⁻¹. Moreover, the on-rate (kon) in [10] was 60700 M⁻¹ s⁻¹; in assay [2], 68100 M⁻¹ s⁻¹; in the assay with Human FcRn, 291000 M⁻¹ s⁻¹. The 50% effective concentration (EC50) – broadly, the concentration needed to bring the measured effect to its halfway point – was 78 nM with human CLDN18.2 [6] and 65 nM in assay [12]. Also, the binding result with Human CD16a(F) was “no binding (tested: 10000-625 nM)”; in the assay with Human CD32a(H), “no binding (tested: 10000-625 nM)”; with Human CD64 it was “no binding (tested: 800-50 nM)”; with Human CD32b, “no binding (tested: 10000-625 nM)”; with Human CD16a(V), “no binding (tested: 6000-375 nM)”. Moreover, the “TDCC, Titer EC50 (pM), SNU620” value in [7] amounted to 18.5 pM. In the assay with human CLDN18.2 [8], the “TDCC, Titer EC50 (pM), IM95” value was found to be 460 pM. For the same molecule, the “TDCC, Titer EC50 (pM), NUGC4_D8” value with human CLDN18.2 [8] was determined as 87 pM.
